Blank lines part the entries; values can stand above or below the substance they belong to.
Columns and labels:
HSPB1-3D = HSPB1-3D (UniProt P04792); assay: SEC; 2 µM luciferase (45 °C) or LDH (55 °C) heat shocked 15 min with 20 µM HSPB1 construct, or the HSPB1 construct heat shocked alone; analysed at the start (0 h) of the disaggregation reaction; Superose 12, reaction buffer, 4 °C; fractions detected by immunoblot
[1] = target: Lactate dehydrogenase (LDH) from rabbit muscle (rabbit) (UniProt P13491)
[2] = target: Lactate dehydrogenase (LDH) from rabbit muscle (rabbit) (UniProt P13491); assay: SEC; 2 µM luciferase (45 °C) or LDH (55 °C) heat shocked 15 min with 20 µM HSPB1 construct, or the HSPB1 construct heat shocked alone; analysed at the start (0 h) of the disaggregation reaction; Superose 12, reaction buffer, 4 °C; fractions detected by immunoblot
[3] = target: Lactate dehydrogenase (LDH) from rabbit muscle (rabbit) (UniProt P13491); assay: SEC; native luciferase or LDH alone; Superose 12 10/300 GL, reaction buffer, 4 °C; 1 mL fractions detected by immunoblot
[4] = target: Lactate dehydrogenase (LDH) from rabbit muscle (rabbit) (UniProt P13491); remark: listed apart in the source

Substance: Lactate dehydrogenase (LDH) from rabbit muscle
percent of total HSPB1-3D in the high molecular size fractions (7-9 mL) after heat shock with the substrate (HSPB1-3D): ~ 20% and 40%, respectively, of the total amount of HSPB1-3D was found in high molecular size fractions

decrease of the optical density at 320 nm (light scattering) of 2 µM LDH aggregating at 55 °C with 20 µM HSPB1-3D-GxG, against LDH alone [1]: 95%
percent of HSPB1-3D-GxG in the large molecular size fractions after heat shock with LDH [2]: 20%
Substance: HSPB1-3D-GxG (from UniProt P04792 1-205) (natural protein)

stoichiometry N [3]: 4
Substance: Lactate dehydrogenase (LDH) from rabbit muscle (from UniProt P13491 1-332) (enzyme)

decrease of the optical density at 320 nm (light scattering) of 2 µM LDH aggregating at 55 °C with 20 µM HSPB1-3D, against LDH alone [4]: 90%
Substance: HSPB1-3D (from UniProt P04792 1-205) (natural protein)

Source: PMC8384840
